Measured values from publication PMC1260013 (BMC Biochemistry, 2005).
“And” between values parts separate entries of the source, which are not always exact repeats. Equal values may be shown once.

Legend:
[1] = target: the molecule itself; experiment: SEC; Superdex-200 HR 10/30, room temperature, 2.4 mg/ml recombinant ICD-1, calibrated with molecular-mass standards
[2] = target: the molecule itself; experiment: SEC
[3] = target: the molecule itself; experiment: SEC; Superose 6 10/300 GL, room temperature, concentrated ICD-2 (~400 ug; 1.06 mg/ml), high salt (1 M NaCl)
[4] = target: the molecule itself; experiment: SEC; Superose 6 10/300 GL, room temperature, concentrated ICD-2 (~400 ug; 1.06 mg/ml), low salt (100 mM NaCl)

Protein | stoichiometry N [1] | stoichiometry N [2] | stoichiometry N [3] | stoichiometry N [4]
Mycobacterium tuberculosis isocitrate dehydrogenase ICD-1 (Rv3339c) (enzyme, also called M.tb ICD-1; M. tb ICD-1) MSNAPKIKVSGPVVELDGDEMTRVIWKLIKDMLILPYLDIRLDYYDLGIEHRDATDDQVTIDAAYAIKKHGVGVKCATITPDEARVEEFNLKKMWLSPNGTIRNILGGTIFREPIVISNVPRLVPGWTKPIVIGRHAFGDQYRATNFKVDQPGTVTLTFTPADGSAPIVHEMVSIPEDGGVVLGMYNFKESIRDFARASFSYGLNAKWPVYLSTKNTILKAYDGMFKDEFERVYEEEFKAQFEAAGLTYEHRLIDDMVAACLKWEGGYVWACKNYDGDVQSDTVAQGYGSLGLMTSVLMTADGKTVEAEAAHGTVTRHYRQYQAGKPTSTNPIASIFAWTRGLQHRGKLDGTPEVIDFAHKLESVVIATVESGKMTKDLAILIGPEQDWLNSEEFLDAIADNLEKELAN | 4 and 2 |  |  | 
Mycobacterium tuberculosis isocitrate dehydrogenase ICD-2 (Rv0066c) (enzyme, also called M.tb ICD-2; M. tb ICD-2) MSAEQPTIIYTLTDEAPLLATYAFLPIVRAFAEPAGIKIEASDISVAARILAEFPDYLTEEQRVPDNLAELGRLTQLPDTNIIKLPNISASVPQLVAAIKELQDKGYAVPDYPADPKTDQEKAIKERYARCLGSAVNPVLRQGNSDRRAPKAVKEYARKHPHSMGEWSMASRTHVAHMRHGDFYAGEKSMTLDRARNVRMELLAKSGKTIVLKPEVPLDDGDVIDSMFMSKKALCDFYEEQMQDAFETGVMFSLHVKATMMKVSHPIVFGHAVRIFYKDAFAKHQELFDDLGVNVNNGLSDLYSKIESLPASQRDEIIEDLHRCHEHRPELAMVDSARGISNFHSPSDVIVDASMPAMIRAGGKMYGADGKLKDTKAVNPESTFSRIYQEIINFCKTNGQFDPTTMGTVPNVGLMAQQAEEYGSHDKTFEIPEDGVANIVDVATGEVLLTENVEAGDIWRMCIVKDAPIRDWVKLAVTRARISGMPVLFWLDPYRPHENELIKKVKTYLKDHDTEGLDIQIMSQVRSMRYTCERLVRGLDTIAATGNILRDYLTDLFPILELGTSAKMLSVVPLMAGGGMYETGAGGSAPKHVKQLVEENHLRWDSLGEFLALGAGFEDIGIKTGNERAKLLGKTLDAAIGKLLDNDKSPSRKTGELDNRGSQFYLAMYWAQELAAQTDDQQLAEHFASLADVLTKNEDVIVRELTEVQGEPVDIGGYYAPDSDMTTAVMRPSKTFNAALEAVQG |  | 3 | 2 | 4
